Results from article doi:10.1101/420174.

Target: afTMEM16 scramblase from Aspergillus fumigatus (Aspergillus fumigatus)
Assay: cryo-EM structure

**Q.** “afTMEM16 scramblase from Aspergillus fumigatus (natural protein)” was tested. Which stoichiometry N did it give?
**A.** Its stoichiometry N is 2.
